We go through 32 variants from the RNAGym collection of RNA variant scans (doi:10.7554/elife.80360).

Sequences and labels used below:
B1: HDV Ribozyme (parent)
chain: GGCCGGCAUGGUCCCAGCCUCCUCGCUGGCGCCGGCUGGGCAACAUUCCGAGGGGACCGUCCCCUCGGUAAUGGCGAAUGGGACCCA

In the data set the parent is B1. Briefly: self-cleavage, relative activity (ratio to wild type); higher = more cleavage; co-transcriptional.
For GGCCGGCAUGGUGCCAGCCUCCUCGCUGGCGCCGGCUGGGCAACAUUCCGAGGGGACCGUCCCCUCGGUGAUGGCGAAUGGGACCCA, the self-cleavage was determined as 0.229.
The figure for GGCCGGCAUGGUGCCAGCCUCCUCGCUGGCGCCGGCUGGGCAACAUUCCGAGGGGACCGUCCCCUCGGUCAUGGCGAAUGGGACCCA is 0; for GGCCGGCAUGGUACCAGCCUCCUCGCUGGCGCCGGCUGGGCAACAUUCCGAGGGGACCGUCCCCUCGGUAAUGGCUAAUGGGACCCA it is 0.317.
The figure for GGCCGGCAUGGUGCCAGCCUCCUCGCUGGCGCCGGCUGGGCAACAUUCCGAGGGGACCGUCCCCUCGGUAAUGGCGCAUGGGACCCA is 0.0615; for GGCCGGCAUGGUGCCAGCCUCCUCGCUGGCGCCGGCUGGGCAACAUUCCGAGGGGACCGUCCCCUCGGUAAUGGCGGAUGGGACCCA it is 0.199; for GGCCGGCAUGGUACCAGCCUCCUCGCUGGCGCCGGCUGGGCAACAUUCCGAGGGGACCGUCCCCACGGUAAUGGCGAAUGGGACCCA it is 0.348.
The figure for GGCCGGCAUGGUGCCCGCCUCCUCGCUGGCGCCGGCUGGGCAACAUUCCGAGGGGACCGUCCCCUCGGUAAUGGCGAAUGGGACCCA is 0.0554; for GGCCGGCAUGGUGCCGGCCUCCUCGCUGGCGCCGGCUGGGCAACAUUCCGAGGGGACCGUCCCCUCGGUAAUGGCGAAUGGGACCCA it is 0.0831.
In the case of GGCCGGCAUGGUGCCUGCCUCCUCGCUGGCGCCGGCUGGGCAACAUUCCGAGGGGACCGUCCCCUCGGUAAUGGCGAAUGGGACCCA, the self-cleavage was found to be 0.19.
The figure for GGCCGGCAUGGUACCAGCCUCCUCGCUGGCGCCGGCUGGGCAACAUUCCGAGGGGACCGUCCCCUCGGUAAUGGCGAACGGGACCCA is 0.0692; for GGCCGGCAUGGUGCCAGCCUCCUCGCUGGCGCCGGCUGGGCAACGUUCCGAGGGGACCGUCCCCUCGGUAAUGGCGAAUGGGACCCA it is 0.138; for GGCCGGCAUGGUACCAGCCUCCUCGCUGGCGCCGGCUGGGCAACAUUCCUAGGGGACCGUCCCCUCGGUAAUGGCGAAUGGGACCCA it is 0.282.
The value for GGCCGGCAUGGUACCAGCCUCCUCGCUGGCGCCGGCUGGGCAACAUUCCAAGGGGACCGUCCCCUCGGUAAUGGCGAAUGGGACCCA was 0.295; that for GGCCGGCAUGGUACCAGCCUCCUCGCUGGCGCCGGCUGGGCAACAUUCCGAGGGGACCGUCCCCUCGGUAAUUGCGAAUGGGACCCA was 0.0615; that for GGCCGGCAUGGUACCAGCCUCCUCGCUGGCGCCGGCUGGGCAACAUUCCGAGGGGACCGUCCCCUCGGUAAUCGCGAAUGGGACCCA was 0.0767.
The value for GGCCGGCAUGGUACCAGCCUCCUCGCUGGCGCCGGCUGGGCAACAUUCCGAGGGGACCGUCCCCUCGGUAAUAGCGAAUGGGACCCA was 0.0863.
As to GGCCGGCAUGGUACCAGCCUCCUCGCUGGCGCCGGCUGGGCAACAUUCCGAGGGGACCGUCCCCUCGGUAAUGGCGAAUGGAACCCA, the self-cleavage was 0.264.
The value for GGCCGGCAUGGUACCAGCCUCCUCGCUGGCGCCGGCUGGGCAACAUUCCGAGGGGACCGUCCCCUCGGUAAUGGCGAAUGGCACCCA was 0.17.
The value for GGCCGGCAUGGUACCAGCCUCCUCGCUGGCGCCGGCUGGGCAACAUUCCGAGGAGACCGUCCCCUCGGUAAUGGCGAAUGGGACCCA was 0.117; that for GGCCGGCAUGGUACCAGCCUCCUCGCUGGCGCCGGCUGGGCAACAUUCCGAGGCGACCGUCCCCUCGGUAAUGGCGAAUGGGACCCA was 0.283.
The value for GGCCGGCAUGGUACCAGCCUCCUCGCUGGCGCCGGCUGGGCAACAUUCCGAGGGGACCGUCCCCUCGGUAAUGGCGAAUCGGACCCA was 0.125.
For the variant GGCCGGCAUGGUACCAGCCUCCUCGCUGGCGCCGGCUGGGCAACAUUCCGAGGGGACCGUCCCCUCGGUAAUGGCGAAUAGGACCCA, the self-cleavage was 0.106.
With GGCCGGCAUGGUACCAGCCUCCGCGCUGGCGCCGGCUGGGCAACAUUCCGAGGGGACCGUCCCCUCGGUAAUGGCGAAUGGGACCCA, the self-cleavage was 0.0923.
The value for GGCCGGCAUGGUACCAGCCUCCUCGCUGGCGCCGGCUGGGCAACAUUCCGAGGGGACCGUCCCCUCGGUAAUGGCGAAUGAGACCCA was 0.16; that for GGCCGGCAUGGUGCCAGCCUCCUCGCUGGCGCCGGCUGGGCAACAUUCCGAGGGGACCGUCCCCUCGGUAAUGGCGAAUGGGACCCG was 0.0903; that for GGCCGGCAUGGUGCCAGCCUCCUCGCUGGCGCCGGCUGGGCAACAUUCCGAGGGGACCGUCCCCUCGGUAAUGGCGAAUGGGACCCC was 0.
The value for GGCCGGCAUGGUACCAGCCUCCUCGCUGGCGCCGGCUGGGCAACAUUCCGAGGGGACCGUCCCCUCAGUAAUGGCGAAUGGGACCCA was 0.23; that for GGCCGGCAUGGUACCAGCCUCCUCGCUGGCGCCGGCUGGGCAACAUUCCGAGGGGACCGUCCCCUCCGUAAUGGCGAAUGGGACCCA was 0.259; that for GGCCGGCAUGGUACCAGCCUCCUCGCUGGCGCCGGCUGGGCAACAUUCCGAGGGGACCGUCCCCUCUGUAAUGGCGAAUGGGACCCA was 0.17.
The value for GGCCGGCAUGGUGCCAGCCUCCUCGCUGGCGCCGGCUGGGCAACAUUCCGAGGGGUCCGUCCCCUCGGUAAUGGCGAAUGGGACCCA was 0.
As for GGCCGGCAUGGUACCAGCCUCCUCGCUGGCGCCGGCUGGGCAACAUUCCGAGGGGACCGACCCCUCGGUAAUGGCGAAUGGGACCCA, the self-cleavage was found to be 0.214.
The figure for GGCCGGCAUGGUACCAGCCUCCUCGCUGGCGCCGGCUGGGCAACAUUCCGAGGGGACCGGCCCCUCGGUAAUGGCGAAUGGGACCCA is 0.136.
